Reference: PMC6017478, “Exploring Alternative Radiolabeling Strategies for Sialic Acid-Binding Immunoglobulin-Like Lectin 9 Peptide: [^68Ga]Ga- and [^18F]AlF-NOTA-Siglec-9” (Molecules : A Journal of Synthetic Chemistry and Natural …, 2018)
Positions of bridges follow the written chain, without caps; N, C: chain ends. Residues, ends and D or L forms follow the SMILES beside them. Groups on a side chain read outwards from the residue. *: point of attachment. NOTA = O=C(O)CN1CCN(CC(=O)O)CCN(CC(=O)*)CC1; AEEA = NCCOCCOCC(=O)O

Legend:
[1] = rat, in vivo, iv
Description: The rats were subcutaneously injected with 50 µL turpentine oil (Sigma-Aldrich) into the right shoulder area (foreleg) to induce skin/muscle inflammation, which was allowed to develop for 24 h prior to PET imaging. For imaging and ex vivo analysis, the rats were anesthetized using isoflurane and intravenously injected with 17.7 ± 3.4 MBq of one of the two radiotracers via the tail vein cannula. Immediately after injection a dynamic 60-min PET scan was performed on four rats for [^68Ga]Ga-NOTA-Siglec-9 and four rats for [^18F]AlF-NOTA-Siglec-9. The data were acquired in list-mode and iteratively reconstructed with a 3-D ordered subsets expectation maximization algorithm with 8 iterations, 16 subsets, and a 2-mm full-width at half-maximum post-filter into 6 × 10 s, 4 × 60 s, 5 × 300 s, and 3 × 600 s time frames. After imaging, the rats were euthanized, and various tissues, including inflamed skin/muscle (inflamed area) from the right foreleg, skin from the left foreleg (control area), and healthy muscle from the left hind leg, were excised, weighed, and measured with a γ-counter. The ex vivo radioactivity measurements were decay-corrected from the time of injection, and the results were expressed as SUV. Plasma protein binding was measured from plasma samples taken from 60 min post-injections. […] Radioactivity of both the precipitate and the supernatant was measured by γ-counting.

[2] = format: physicochemical; settings: pH 7.6
Description: The distribution coefficient (Log D) was measured by adding 5 kBq of tracer into a mixture of PBS (pH 7.6) and 1-octanol (1:1, v/v). The solution was mixed thoroughly for 5 min at room temperature. After separation of phases by centrifugation (12,000× g, 6 min), 100 µL aliquots of each phase layer were taken for γ-counting to determine Log D. The test was repeated three times. Log D was calculated as Log D=log10 counts per minute in octanol/counts per minute in PBS .

**Q.** With `CC(C)C[C@@H]1NC(=O)CNC(=O)[C@H](CCCNC(=N)N)NC(=O)[C@H](Cc2c[nH]c3ccccc23)NC(=O)[C@H](CO)NC(=O)[C@H](CC(C)C)NC(=O)[C@H](CO)NC(=O)[C@H](CC(C)C)NC(=O)[C@H](CCCNC(=N)N)NC(=O)[C@H](C)NC(=O)[C@@H](N)CSSC[C@@H](C(=O)N2CCC[C@H]2C(=O)N[C@@H](CO)C(=O)N[C@@H](CCCCNC(=O)COCCOCCNC(=O)CN2CCN(CC(=O)O)CCN(CC(=O)O)CC2)C(=O)O)NC(=O)[C@H](CC(C)C)NC(=O)[C@H]([C@@H](C)O)NC1=O` [[^68Ga]Ga-NOTA-Siglec-9] [metal not drawn] (H-CARLSLSWRGLTLCPSK([AEEA-NOTA])-OH; disulfide 1-14) as the molecule, how does the Plasma protein binding [1] read?
**A.** Its Plasma protein binding is 31.4 ± 3.4%.

**Q.** What about the “Log D” value [2] of the same molecule?
**A.** Its value is −3.2 ± 0.3.
